Among the data in article PMC10681739, “High-throughput data and modeling reveal insights into the mechanisms of cooperative DNA-binding by transcription factor proteins” are binding signal values, retold here.

The chains are these.
B1: Table S4 A row 1968 (dsDNA)
DNA 1: GTGATTGGCAGGATCCTGGTATCCGCTAACAGGTAC
DNA 2: GTACCTGTTAGCGGATACCAGGATCCTGCCAATCAC
B2: Table S4 A row 1105 (dsDNA)
DNA 1: GCCAGAGGGGCGGAAGAACCCGGAAGACCCAGGCAG
DNA 2: CTGCCTGGGTCTTCCGGGTTCTTCCGCCCCTCTGGC
B3: Table S4 A row 1074 (dsDNA)
DNA 1: CACGCACATCCCCAGTGAGTAACACTTCCTGAGGGC
DNA 2: GCCCTCAGGAAGTGTTACTCACTGGGGATGTGCGTG
B4: Table S4 A row 761 (dsDNA)
DNA 1: TTGCCGGATGAGGTTGGTTGTCTCTAATTTCCTCTC
DNA 2: GAGAGGAAATTAGAGACAACCAACCTCATCCGGCAA
B5: Table S4 A row 273 (dsDNA)
DNA 1: TAATACAACTGGGGAAGTCACTTCCTTGCTGAGCTT
DNA 2: AAGCTCAGCAAGGAAGTGACTTCCCCAGTTGTATTA
B6: Table S4 A row 2621 (dsDNA)
DNA 1: TGGAGCCGGGGGAAGTGGGAGCATCCGCAGCCCCGC
DNA 2: GCGGGGCTGCGGATGCTCCCACTTCCCCCGGCTCCA
B7: Table S4 A row 493 (dsDNA)
DNA 1: TGGTAAACGGAAGAGACCTCTCCTGTTCCGGGAGTA
DNA 2: TACTCCCGGAACAGGAGAGGTCTCTTCCGTTTACCA
B8: Table S4 A row 258 (dsDNA)
DNA 1: GCTTATCACTGAAGGAAACAGGATGCTAAATGTACG
DNA 2: CGTACATTTAGCATCCTGTTTCCTTCAGTGATAAGC
B9: Table S4 A row 1346 (dsDNA)
DNA 1: TTCCCAGGAAGCCCCAAAGCCCTGGCTTCCGCCCAA
DNA 2: TTGGGCGGAAGCCAGGGCTTTGGGGCTTCCTGGGAA
B10: Table S4 A row 1783 (dsDNA)
DNA 1: ACCCCGGATGGCACCGCGAGTCCCCGTTTCCGACAA
DNA 2: TTGTCGGAAACGGGGACTCGCGGTGCCATCCGGGGT
B11: Table S4 A row 1336 (dsDNA)
DNA 1: AGGTCGGAAGCGCTTCTACTGCAGCTCCGGAAAGGG
DNA 2: CCCTTTCCGGAGCTGCAGTAGAAGCGCTTCCGACCT
B12: Table S2 A row 1129 (dsDNA)
DNA 1: CACTTCCTCCTCGGGGGCCTCAGAAAACCACAGGGC
DNA 2: GCCCTGTGGTTTTCTGAGGCCCCCGAGGAGGAAGTG
B13: Table S2 A row 712 (dsDNA)
DNA 1: GACTTTTACGGAAATAGCAGTCCAAAACCGCGTCTA
DNA 2: TAGACGCGGTTTTGGACTGCTATTTCCGTAAAAGTC
B14: Table S2 A row 140 (dsDNA)
DNA 1: AGTTACAGTAAAGGATGTGGTGAAACAGATGTTTAT
DNA 2: ATAAACATCTGTTTCACCACATCCTTTACTGTAACT
B15: Table S2 A row 465 (dsDNA)
DNA 1: TGAGGGGCTCGCCGGGAAATGTGGTTTAGCGGCCCT
DNA 2: AGGGCCGCTAAACCACATTTCCCGGCGAGCCCCTCA
B16: Table S2 A row 1399 (dsDNA)
DNA 1: TCGCACCGGAACCCCTTGGCGGATTATGTGGGTTCC
DNA 2: GGAACCCACATAATCCGCCAAGGGGTTCCGGTGCGA
B17: Table S2 A row 1056 (dsDNA)
DNA 1: GGGTCTCCAGGAAGCCACTCACCACAAACTTTGACA
DNA 2: TGTCAAAGTTTGTGGTGAGTGGCTTCCTGGAGACCC
B18: Table S2 A row 1411 (dsDNA)
DNA 1: GAGGGGGAGGTTTCCGGGGCCTGTGGTTACTACACT
DNA 2: AGTGTAGTAACCACAGGCCCCGGAAACCTCCCCCTC
B19: Table S2 A row 1444 (dsDNA)
DNA 1: TGCTTAGCGGGAAGTGCTTACACCACAAAACAAGAC
DNA 2: GTCTTGTTTTGTGGTGTAAGCACTTCCCGCTAAGCA
B20: Table S2 A row 378 (dsDNA)
DNA 1: GAAAAAAATGAGCTTCCTTTAACCACAACTGTATTA
DNA 2: TAATACAGTTGTGGTTAAAGGAAGCTCATTTTTTTC
B21: Table S2 A row 308 (dsDNA)
DNA 1: GCCGCTGCCTCTTCCTGTGTGGTTTTTCAGGGCTTA
DNA 2: TAAGCCCTGAAAAACCACACAGGAAGAGGCAGCGGC
B22: Table S2 A row 1288 (dsDNA)
DNA 1: TCTCTATGGTTTCCGTTGGGTGTGTGGTTTTTTTGT
DNA 2: ACAAAAAAACCACACACCCAACGGAAACCATAGAGA
B23: Table S2 A row 1201 (dsDNA)
DNA 1: GTTGAGTTCCGGGGGAGGTTGAGTTCCTGCGGTCAA
DNA 2: TTGACCGCAGGAACTCAACCTCCCCCGGAACTCAAC
B24: Table S2 A row 670 (dsDNA)
DNA 1: TGAGCACAGTATTTCCTGTGGTTTCTATTGCATTTC
DNA 2: GAAATGCAATAGAAACCACAGGAAATACTGTGCTCA
B25: Table S2 A row 1000 (dsDNA)
DNA 1: CCCATTTCCTGCTCTCCAGAGTTAACCACTGAAGTC
DNA 2: GACTTCAGTGGTTAACTCTGGAGAGCAGGAAATGGG
B26: Table S2 A row 1529 (dsDNA)
DNA 1: GGTGCCTGGGGAGGATGTGGGCTGACTGGGAGGGGT
DNA 2: ACCCCTCCCAGTCAGCCCACATCCTCCCCAGGCACC
B27: Table S2 A row 1237 (dsDNA)
DNA 1: AGCCTACATCCTGCACTGCTTAACCACAGCCCGCCT
DNA 2: AGGCGGGCTGTGGTTAAGCAGTGCAGGATGTAGGCT
B28: Table S2 A row 672 (dsDNA)
DNA 1: ATGTGCCCAAAGGATGTCACCGCAAAGATCATAGGA
DNA 2: TCCTATGATCTTTGCGGTGACATCCTTTGGGCACAT
B29: Table S2 A row 127 (dsDNA)
DNA 1: CAAGCCAGGAAGAGGGCCCTCACCAGAAACCGCACT
DNA 2: AGTGCGGTTTCTGGTGAGGGCCCTCTTCCTGGCTTG
B30: Table S2 A row 963 (dsDNA)
DNA 1: GGGTCGCGGCCTTCCGGCGAACGCGGTTACCGTGGA
DNA 2: TCCACGGTAACCGCGTTCGCCGGAAGGCCGCGACCC

In the first data set the target is T1, ETS1 x2 (Homo sapiens, UniProt P14921).
T1 sequence: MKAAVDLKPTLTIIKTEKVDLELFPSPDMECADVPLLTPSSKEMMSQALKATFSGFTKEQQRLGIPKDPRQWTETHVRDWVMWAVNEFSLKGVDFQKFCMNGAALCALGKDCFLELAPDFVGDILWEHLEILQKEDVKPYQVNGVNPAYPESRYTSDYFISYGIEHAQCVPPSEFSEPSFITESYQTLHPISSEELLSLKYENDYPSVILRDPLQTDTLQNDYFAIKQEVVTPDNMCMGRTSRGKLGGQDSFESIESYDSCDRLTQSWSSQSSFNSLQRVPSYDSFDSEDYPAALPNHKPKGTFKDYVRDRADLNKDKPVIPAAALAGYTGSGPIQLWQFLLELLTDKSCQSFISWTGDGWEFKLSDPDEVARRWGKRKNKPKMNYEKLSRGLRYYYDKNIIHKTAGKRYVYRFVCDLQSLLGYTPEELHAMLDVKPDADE
Briefly: gcPBM; 10 nM ETS1. The note with it: tags: N-terminal GST (pDEST15), kept (PMC6008103); chain copies: 2; label: surface-attached array probe.
On to B1, for which the binding signal is 599 PBM fluorescence, median of replicate spots.

On to B2, for which the binding signal was 832 PBM fluorescence, median of replicate spots.

For B3, the binding signal was 653 PBM fluorescence, median of replicate spots.

Take B4: the binding signal was 764 PBM fluorescence, median of replicate spots.

Take B5: the binding signal was 849 PBM fluorescence, median of replicate spots.

Consider B6, for which the binding signal was 698 PBM fluorescence, median of replicate spots.

B7: the binding signal was 743 PBM fluorescence, median of replicate spots.

In the case of B8, the binding signal is 844 PBM fluorescence, median of replicate spots.

Turning to B9, the binding signal was 774 PBM fluorescence, median of replicate spots.

For the molecule B10, the binding signal is 645 PBM fluorescence, median of replicate spots.

As for B11, the binding signal was 806 PBM fluorescence, median of replicate spots.

Another data set deals with ETS1:RUNX1 (Homo sapiens, UniProt P14921;Q01196 full;full). The experiment in a line: gcPBM; 1 nM ETS1 + 25 nM RUNX1, anti-ETS1 signal, normalised. Conditions: tags: N-terminal GST (pDEST15), kept (PMC6008103); copies: 1;1; label: surface-attached array probe.
Chain of ETS1:RUNX1 (Q01196 whole entry, one chain of several): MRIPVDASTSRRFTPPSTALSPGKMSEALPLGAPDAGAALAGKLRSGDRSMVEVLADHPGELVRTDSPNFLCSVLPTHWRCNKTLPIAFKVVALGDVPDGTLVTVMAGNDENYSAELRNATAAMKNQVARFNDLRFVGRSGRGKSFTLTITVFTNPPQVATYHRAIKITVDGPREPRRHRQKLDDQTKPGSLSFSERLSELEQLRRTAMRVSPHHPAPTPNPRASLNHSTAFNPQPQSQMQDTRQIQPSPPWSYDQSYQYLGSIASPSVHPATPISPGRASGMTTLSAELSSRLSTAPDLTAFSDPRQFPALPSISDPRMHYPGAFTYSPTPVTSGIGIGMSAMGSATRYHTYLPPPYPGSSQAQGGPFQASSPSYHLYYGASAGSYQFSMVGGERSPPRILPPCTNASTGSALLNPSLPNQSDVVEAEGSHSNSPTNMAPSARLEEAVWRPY
For B12, the binding signal is 1580 PBM fluorescence, median of replicate spots.

For B13, the binding signal was 1340 PBM fluorescence, median of replicate spots.

For B14, the binding signal was 1480 PBM fluorescence, median of replicate spots.

Regarding B15, the binding signal was 1230 PBM fluorescence, median of replicate spots.

B16: the binding signal is 1490 PBM fluorescence, median of replicate spots.

As to B17, the binding signal was 1560 PBM fluorescence, median of replicate spots.

B18: the binding signal is 1620 PBM fluorescence, median of replicate spots.

In the case of B19, the binding signal was 1280 PBM fluorescence, median of replicate spots.

With B20, the binding signal is 1320 PBM fluorescence, median of replicate spots.

Take B21: the binding signal was 1610 PBM fluorescence, median of replicate spots.

For B22, the binding signal was 1410 PBM fluorescence, median of replicate spots.

In the case of B23, the binding signal is 1630 PBM fluorescence, median of replicate spots.

In the case of B24, the binding signal is 1550 PBM fluorescence, median of replicate spots.

On to B25, for which the binding signal was 1350 PBM fluorescence, median of replicate spots.

On to B26, for which the binding signal is 1520 PBM fluorescence, median of replicate spots.

As for B27, the binding signal is 1360 PBM fluorescence, median of replicate spots.

Consider B28, for which the binding signal was 1400 PBM fluorescence, median of replicate spots.

Take B29: the binding signal is 1640 PBM fluorescence, median of replicate spots.

As for B30, the binding signal is 1180 PBM fluorescence, median of replicate spots.
